In patent US20020022718A1, “Genes identified as required for proliferation of E. coli” (priority 1999, published 2002):

B1: EcXA121: antisense clone insert to E. coli yjfQ (nucleic acid, listed as Escherichia coli)
antisense: TGATCGATCAGGTAATTTGCCAGCGGTAGATAATTAGTGATGATTTGCACTGGCTTGCCACACATTTCCCGCCCAAGCAGAAACGCGGTGGAGCCGCAGTTGATGACTACGCTTTCGCCCGGATTAACCAGCTGCGAGGCCGCTTTAGCGATACGTACTTTTTCATCGTGATTCTGCGCCTGATGCAGATTCATCGGCGTCCAGCGCGGGCGCTGTTGGGTAATAGCTTCTGCGCCATTGCGCACTTTTTTCAGTTTGCCGCTTTCGTCAAGTTTATTGA
B2: EcXA123: antisense clone insert to E. coli yheL (nucleic acid, listed as Escherichia coli)
antisense: CTGGTTTTAGCTTTTGCTTCGTAAACACGTAATAAAACGTCCTCACACAATATGAGGACGCCGAATTTTAGGGCGATGCCGAAAAGGTGTCAAGAAATATACAACGATCCCGCCATCACCAGGCCATCTGGCTGGGG
B3: EcXA125: antisense clone insert to E. coli yiiL (nucleic acid, listed as Escherichia coli)
antisense: TGTCGGTAAACAATGACAATTTGAGACAGAGTGAAAGGTCAGATTTGCGGAGTAATGCACATAATGGTTATTTAAATAAACCACATGAATCATTAATGGGTTATTCATTATTTTTGTGATTTACTCACAATGTATCAGGGAAATATAACTTACCGGGAGATGTAATATGTTTAATTTTTCAAATCGAAATTTAAAATATTGTGCCGGAGGCATCTCTGGCACATTGGGCAATTACGGCA
B4: EcXA126: antisense clone insert to E. coli yicC (nucleic acid, listed as Escherichia coli)
antisense: CGATGTTCTGAATCTGCTCGCGCATCTGCTCAATCAACACTTTCAGCTCGATGGCGGAGTTTGTCACTTCGGCATTGATAGACTTCGACGCAAGAGTGTTCGACTCGCGGTTGA
B5: EcXA128: antisense clone insert to E. coli nagE (nucleic acid, listed as Escherichia coli)
antisense: CGCTGGAAAAAACCTAAAATATTCATCTTATTCCCCCTACGAGAACCCTATTTGGCTCGTTTCAAGCCGTATTTTTATTTTGCTGCAAATTGTACTGCCGATGTTCTGTAATCAGATTGTTAGATCATCTGCTACAGAGTGTGTGAAAATTTAATTCGTATCGCAAATTAAACGCGTGTCTTTTGTGAGTTTTGTCACCAAATATCGTTATTATCACTCCCTTTTACTGGCTAAACCAGAAAACTTATTT
B6: EcXA129: antisense clone insert to E. coli yadC, yadK (nucleic acid, listed as Escherichia coli)
antisense: GTATTACAACAAGAATACAGTGCTAAAAAAAGAATGTACCTGAAGATAGTCTTCATTTTTACTCCAATGTTTCTTTATTGTTATGGTTTGCGCTGTTTTTGTTTGTTATTCGTAGTAAATATCCACTAACACATGGCTCATAAGTTGACCAGATGTAACACTCAATGCAGGATCGATTTTTTGCATTCGGGTGCTAAATTTCCAGGATGAACCATTCATGTCATCCGACATTACTGG
B7: EcXA130: antisense clone insert to E. coli atpE, atpB (nucleic acid, listed as Escherichia coli)
antisense: CATCATCACAGCGGCAGCCATGTACAGCAGATCCATATTCAGGTTTTCCATGACAGTCTCCAGTTTGTTTCAGTTAAAACGTAGTAGTGTTGGTAAATTAATGTTCTTCAGACGCCATCGACAGATAGACGATCGTCAGAACCATGAAGATGAAGGCTTGCAGCGTAATGATCAGGATGTGGAAAATGGCCCACGGCACATTCAGGATCCACTGTGACCACCACGGCAACAGACCAG
B8: EcXA132: antisense clone insert to E. coli narV (nucleic acid, listed as Escherichia coli)
antisense: GGAGAGCGAAGGGCTATCCGGCCAGGGTGAAATTATCGCCGCGAACGCACAATTTGATATCGACGAGTAAAGTACTCAAACGGCGCGCTCCACACATGCACCAGTCGGGTGAACGGGAAGAGCAGGAAGATGGTCATTCCCAACACCAGATGCAGGCGGAAGACGAACGCTACGCCGTTGAGCATCTCTGACGATCCACCACGGAAAGTGA
B9: EcXA137: antisense clone insert to E. coli proA, thrW (nucleic acid, listed as Escherichia coli)
antisense: CTTTTTACGGACAAACAATCATGCAACCAGAAGTTGAAGTATTAACCGATCATAATGAGCTAATTTGTTCGAGCTTTATTGAACACATTGCCAACACATTAAATTTAGGAGTGGTGTACAACTAAACCTGCAGCCAAGGATGTATAGTGAGCGAAGCCCTATCAGGCCTTTTTGGTCAGTAGATAAGATTGATCTTCGTTGATAGAATTTACTTACACCAGCTGTTACATTAAGATAATTTTTTGGTGGGAGAATGATAAGATCTTACGTAACAATTTGATTTTAATGGTGCCGATAATAGGAGTCGAACCTACGACCTTCGCATTACGAATGCGCTGCTCTACCAACTGAGCTATATCGGCCCTGAAAGGACATGTTCACGAACGTGAATCACGGTGGACAAGGTTAAAACTAACCGGGCGATGCGTCAATGGCCTTGTGAATCAAATGGCTACTTTTGCATCACCCGGTTTTATTTACGCACGAATGGTGTAATCACCAATGCCGATCCACTTGTAAGTGGTCAAGTGCTTNCAGCCCCATTGGGCCACGCGCCGTGGAGTTTTTGTGTGCTTACCGGCACTTTCGCACCCAGACCAAACTGGCCGCCGTCGGTAAAACGCGTAGAGGCGTTACGTAAACAGCGGACGAATCCACTTCGTNACAAAACGCTTGGCGTTGGCATATCGCGGGTCANGATCGCAATCGGAGTGTTGTGTGCCCGGGTTN
modifications: misc_feature (1)...(729): n = A,T,C or G
notes: antisense clone insert to E. coli proA, thrW
B10: EcXA138: antisense clone insert to E. coli yhaC (nucleic acid, listed as Escherichia coli)
antisense: AGCCATTGTCCGGAGAATTTTCGTCTTTCTCGAGGGTATTATCTGAAAGTAACTCTTCTGAGCTAGAGTCTTCTATGTTTAAATCCATAGTATAATTAATTTGGGGGACGACCAGATAAGCATTTTCTTTGGTATTTTCATAATCTTCAATGATTATATCCGATGTAATCATATATTTTTTCTGATGAGAATTCTTTCATCTCTGTTAATTTAATTCTGTTCAAGCAATTGATGATTTTCGATGAGCTTTTATATATTTCTTTTGTTAATTCATTTTCTAATTTATCTGTAAGAGTTGCCCTTGG
B11: EcXA139: antisense clone insert to E. coli b0874 (nucleic acid, listed as Escherichia coli)
antisense: AGGTTACTGGCGAGGTTATCGAGAAACGCCAGACTGATACCCATAAAAAAGAGAATAAGGTAAACCATCCAGCTTAATAGCTGATTAATAACTTTTAACGCAGCTTGTTGGCGAAGCGGAATGAGGTAACCCACAATCAGGGGAACCAGAATGATTAACAGCCCAGAAAACATGAAAACCCAGTCCTTGCAAAGATGAAGTCGAAATGCGCGATGACACACTACTGAAAGCGGAAGGACGAGTAAAGTTGCAATTAAAAGGAAATGTTATGCATAAGGAGCAGTAGAGTATTCGTTTTCATTTAAAGATATTCTTGCGCTTTAATTACAAACTGCACCGATGTTGGTGGCGTCAAAATCGCCGAGGCGTTCCCTGAAGGCCGGGGCAGCCCACATGGATGTGGGCTGAGGGCGCGTTTTACAGGG
B12: EcXA141: antisense clone insert to E. coli rfc (nucleic acid, listed as Escherichia coli)
antisense: CGATTATAGGGCTGACCAAATACATGGATAGATAATATGCCATCCCCCCAGGCAGTCCACGTAAAAAGAGCATATACAAGGAGAATAGAACACCTACAGCTGTAATAAGATAAACATAATGTTTTACTCTATTAACACCTACGATGAATGCATAAGAGATGATAACCATAAAGACAATTTGCTTACCAGTATTCAGTATAATTGCAAAGATGAATACAATAAAAACAAGTAAAGTAAATGTTTTACTTACCTTTGTATTAGTAAATTTTTTA

Tested on: Klebsiella pneumoniae
Assay: Growth inhibition by induced E. coli antisense RNA in Klebsiella pneumoniae
Assay type: cell-based
Parameters: key: +: a positive in Table V below means that at least 10 fold more cells were required to observe a colony on the induced plate than on the non-induced plate; −: If there was no effect of antisense RNA expression in a microorganism, the clone is minus in Table V below
Conditions: antisense RNA expression induced with IPTG, serial dilution plating
Experimental: To study the effects of transcriptional induction in liquid medium, growth curves were carried out by back diluting cultures 1:200 into fresh media with or without 1 mM IPTG and measuring the OD450 every 30 minutes (min). To study the effects of transcriptional induction on solid medium, 10^2, 10^3, 10^4, 10^5, 10^6, 10^7 and 10^8 fold dilutions of overnight cultures were prepared. Aliquots of from 0.5 to 3 μl of these dilutions were spotted on selective agar plates with or without 1 mM IPTG. After overnight incubation, the plates were compared to assess the sensitivity of the clones to IPTG.
Molecule No. EcXA190, encoding a portion of the b3052 gene of Escherichia coli, was either transformed directly into Enterobacter cloacae, Salmonella typhimurium and/or Klebsiella pneumoniae or subcloned into an expression vector functional in these species and the subclones transformed into these organisms. Suitable expression vectors are well known in the art. These expression vectors were introduced into Enterobacter cloacae, Salmonella typhimurium and/or Klebsiella pneumoniae cells that were then assayed for growth inhibition according to the method of Example 1. After growth in liquid culture, cells were plated at various serial dilutions and a score determined by calculating the log difference in growth for INDUCED vs. UNINDUCED antisense RNA expression as determined by the maximum 10 fold dilution at which a colony was observed. If there was no effect of antisense RNA expression in one organism, the clone is given a score of zero “0” in that organism. In contrast, a score of “8” means that 10^8 times more cells were required to observe a colony formed on the induced state than in the non-induced state under the conditions used and in that organism.
In addition, the above methods were validated using other antisense nucleic acids which inhibit the growth of E. coli which were identified using methods similar to those described above. Expression vectors which inhibited growth of E. coli upon induction of antisense RNA expression with IPTG were transformed directly into Enterobacter cloacae, Klebsiella pneumonia or Salmonella typhimurium. The transformed cells were then assayed for growth inhibition according to the method of Example 1. After growth in liquid culture, cells were plated at various serial dilutions and a score determined by calculating the log difference in growth for INDUCED vs. UNINDUCED antisense RNA expression as determined by the maximum 10 fold dilution at which a colony was observed. If there was no effect of antisense RNA expression in a microorganism, the clone is minus in Table V below. In contrast, a positive in Table V below means that at least 10 fold more cells were required to observe a colony on the induced plate than on the non-induced plate under the conditions used and in that microorganism.

Row | Molecule | Sensitivity of K. pneumoniae to antisense nucleic acid (growth inhibition, induced vs. uninduced)
1 | B1 | −
2 | B2 | −
3 | B3 | −
4 | B4 | −
5 | B5 | −
6 | B6 | −
7 | B7 | −
8 | B8 | −
9 | B9 | −
10 | B10 | −
11 | B11 | −
12 | B12 | −
